Source: article PMC12098241

How the values were obtained:
[1] = biological target: SIRPα-αMSLN^M4F5 local inhibitory checkpoint monoclonal antibody (LicMAb); assay: flow cytometry on cells; binding to SUIT-2-MSLN cells in the presence of saturating concentrations of soluble MSLN (Supplementary Figure S7a)
[2] = biological target: SIRPα-αMSLN^M4F5 local inhibitory checkpoint monoclonal antibody (LicMAb); assay: flow cytometry on cells; binding to SUIT-2-MSLN cells in the presence of 2.5 µM rhMSLN as competitor (Supplementary Figure S6b, c)

## recombinant human MSLN (rhMSLN) (from UniProt Q13421 37-598) (natural protein)
[1]
  percent reduction of the binding of m2 to SUIT-2-MSLN cells by saturating soluble MSLN: 53%
[2]
  percent reduction of the binding of m2 to SUIT-2-MSLN cells by 2.5 µM rhMSLN: 40%
